Results on seven molecules are retold here after article PMC3783180 (Nucleic Acids Research, 2013).

Assay [1] deals with T1, S. cerevisiae Dhh1 residues 46-422 K234D, V238D (S. cerevisiae, UniProt P39517 46-422, K234D | V238D).
T1 sequence: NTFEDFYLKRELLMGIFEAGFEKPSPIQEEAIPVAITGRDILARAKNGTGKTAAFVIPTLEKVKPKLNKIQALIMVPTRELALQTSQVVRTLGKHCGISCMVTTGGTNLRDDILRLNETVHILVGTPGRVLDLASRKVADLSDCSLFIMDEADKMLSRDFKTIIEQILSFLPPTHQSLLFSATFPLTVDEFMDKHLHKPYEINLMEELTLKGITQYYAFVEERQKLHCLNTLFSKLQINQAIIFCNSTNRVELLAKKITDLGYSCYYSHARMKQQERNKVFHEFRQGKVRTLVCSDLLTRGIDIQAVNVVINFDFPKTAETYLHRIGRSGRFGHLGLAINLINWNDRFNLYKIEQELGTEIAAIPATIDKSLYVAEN
Put plainly: crystal structure.

In assay [2] the target is T2, S. cerevisiae Dhh1 residues 251-425 (RecA2 domain) (S. cerevisiae, UniProt P39517 251-425).
T2 sequence: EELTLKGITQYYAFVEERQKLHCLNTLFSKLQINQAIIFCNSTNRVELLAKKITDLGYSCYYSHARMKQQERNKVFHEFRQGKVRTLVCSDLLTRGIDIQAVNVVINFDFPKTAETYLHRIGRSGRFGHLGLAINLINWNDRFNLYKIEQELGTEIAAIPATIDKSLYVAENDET
Put plainly: ITC.

The target in assay [3] is T3, S. cerevisiae Dhh1 residues 30-425 (DEAD-box core, RecA1 and RecA2) (S. cerevisiae, UniProt P39517 30-425).
T3 sequence: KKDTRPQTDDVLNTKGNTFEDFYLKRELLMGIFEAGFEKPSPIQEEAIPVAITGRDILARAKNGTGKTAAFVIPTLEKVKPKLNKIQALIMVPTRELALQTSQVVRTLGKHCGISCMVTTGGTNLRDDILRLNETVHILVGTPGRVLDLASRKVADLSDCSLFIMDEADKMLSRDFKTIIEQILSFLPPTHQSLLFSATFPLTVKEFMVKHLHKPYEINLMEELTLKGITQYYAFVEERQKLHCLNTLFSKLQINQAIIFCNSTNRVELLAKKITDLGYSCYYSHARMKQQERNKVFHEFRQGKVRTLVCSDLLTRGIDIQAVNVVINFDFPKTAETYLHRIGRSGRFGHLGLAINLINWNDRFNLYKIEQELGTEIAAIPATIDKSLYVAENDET
Put plainly: ITC. A general note: In ITC the heat of successive injections is recorded.

Assay [4] deals with T3, S. cerevisiae Dhh1 residues 30-425 …. Put plainly: pull-down.
The target is the same in assay [5]. Put plainly: SEC. (Size exclusion chromatography separates by hydrodynamic size, large species first.)

The Kd is the constant that tells how readily two partners part at equilibrium.

B1: S. cerevisiae Pat1 residues 5-79, as crystallized (domain or fragment)
chain: GLENSGNARDGPLDFEESYKGYGEHELEENDYLNDETFGDNVQVGTDFDFGNPHSSGSSGNAIGGNGVGATARSY
As for B1, in assay [1], the binding result is given as “binds”.

B2: His6-SUMO-tagged S. cerevisiae Pat1 residues 5-79 (domain or fragment)
chain: B1 chain
Regarding B2, the equilibrium dissociation constant (Kd) in assay [2] was found to be 32 nM.

B3: S. cerevisiae Edc3 residues 77-158, as used for ITC (domain or fragment)
chain: QQNDYNQNRGEHIDWQDDDVSKIKQQEDFDFQRNLGMFNKKDVFAQLKQNDDILPENRLQGHNRKQTQLQQNNYQNDELVIP
Regarding B3, the dissociation constant Kd in assay [3] was found to be 200 nM.
For the molecule QQNDYNQNRGEHIDWQDDDVSKIKQQEDFDFQRNLGMFNK (domain or fragment) [S. cerevisiae Edc3 residues 77-116, as crystallized], the binding result in assay [1] is “binds”.

B4: GST-tagged S. cerevisiae Pat1 residues 1-56 (domain or fragment)
chain: MSFFGLENSGNARDGPLDFEESYKGYGEHELEENDYLNDETFGDNVQVGTDFDFGN
Take B4: the binding result in assay [4] is “binds”.

B5: GST-tagged S. cerevisiae Pat1 residues 1-114 (N-terminal domain) (domain or fragment)
chain: MSFFGLENSGNARDGPLDFEESYKGYGEHELEENDYLNDETFGDNVQVGTDFDFGNPHSSGSSGNAIGGNGVGATARSYVAATAEGISGPRTDGTAAAGPLDLKPMESLWSTAP
Take B5: the binding result in assay [4] is “binds”.

B6: S. cerevisiae Pat1 residues 1-114, as in the purified complex with Dhh1 30-425 used for limited proteolysis (domain or fragment)
chain: B5 chain
B6: the binding result in assay [5] is listed as “binds”.
